Results as given in paper PMC9579148.

How the values were obtained:
[1] = target: recombinant SARS-CoV-2 M^pro (Proteros) (SARS-CoV-2); assay: FRET enzymatic inhibition assay
[2] = target: recombinant SARS-CoV-2 M^pro (Proteros) (SARS-CoV-2)

| Substance | Kd [1] [nM] | IC50 of inhibition of M^pro enzymatic activity (FRET substrate cleavage) [2] [nM] |
| --- | --- | --- |
| compound 57 (BOC-Gly-Phe-His aldehyde) (peptide) | 3260 | 6490 |
| compound 58 (octanoyl-Gly-Phe-His aldehyde) (peptide) | 1190 | 2370 |
| compound 4 (acetyl-Gly-Phe-His aldehyde, tripeptide derivative of AT1001) | 1260 | 2510 |
